The results in this text go back to patent US20180002415A1 (Chugai, published 2018).

Assay [1] concerns the target T1, recombinant cynomolgus monkey C5 (cynomolgus monkey, UniProt P01031 20-1676 (human entry), limits assumed).
T1 construct: also called cynoC5
T1 chain: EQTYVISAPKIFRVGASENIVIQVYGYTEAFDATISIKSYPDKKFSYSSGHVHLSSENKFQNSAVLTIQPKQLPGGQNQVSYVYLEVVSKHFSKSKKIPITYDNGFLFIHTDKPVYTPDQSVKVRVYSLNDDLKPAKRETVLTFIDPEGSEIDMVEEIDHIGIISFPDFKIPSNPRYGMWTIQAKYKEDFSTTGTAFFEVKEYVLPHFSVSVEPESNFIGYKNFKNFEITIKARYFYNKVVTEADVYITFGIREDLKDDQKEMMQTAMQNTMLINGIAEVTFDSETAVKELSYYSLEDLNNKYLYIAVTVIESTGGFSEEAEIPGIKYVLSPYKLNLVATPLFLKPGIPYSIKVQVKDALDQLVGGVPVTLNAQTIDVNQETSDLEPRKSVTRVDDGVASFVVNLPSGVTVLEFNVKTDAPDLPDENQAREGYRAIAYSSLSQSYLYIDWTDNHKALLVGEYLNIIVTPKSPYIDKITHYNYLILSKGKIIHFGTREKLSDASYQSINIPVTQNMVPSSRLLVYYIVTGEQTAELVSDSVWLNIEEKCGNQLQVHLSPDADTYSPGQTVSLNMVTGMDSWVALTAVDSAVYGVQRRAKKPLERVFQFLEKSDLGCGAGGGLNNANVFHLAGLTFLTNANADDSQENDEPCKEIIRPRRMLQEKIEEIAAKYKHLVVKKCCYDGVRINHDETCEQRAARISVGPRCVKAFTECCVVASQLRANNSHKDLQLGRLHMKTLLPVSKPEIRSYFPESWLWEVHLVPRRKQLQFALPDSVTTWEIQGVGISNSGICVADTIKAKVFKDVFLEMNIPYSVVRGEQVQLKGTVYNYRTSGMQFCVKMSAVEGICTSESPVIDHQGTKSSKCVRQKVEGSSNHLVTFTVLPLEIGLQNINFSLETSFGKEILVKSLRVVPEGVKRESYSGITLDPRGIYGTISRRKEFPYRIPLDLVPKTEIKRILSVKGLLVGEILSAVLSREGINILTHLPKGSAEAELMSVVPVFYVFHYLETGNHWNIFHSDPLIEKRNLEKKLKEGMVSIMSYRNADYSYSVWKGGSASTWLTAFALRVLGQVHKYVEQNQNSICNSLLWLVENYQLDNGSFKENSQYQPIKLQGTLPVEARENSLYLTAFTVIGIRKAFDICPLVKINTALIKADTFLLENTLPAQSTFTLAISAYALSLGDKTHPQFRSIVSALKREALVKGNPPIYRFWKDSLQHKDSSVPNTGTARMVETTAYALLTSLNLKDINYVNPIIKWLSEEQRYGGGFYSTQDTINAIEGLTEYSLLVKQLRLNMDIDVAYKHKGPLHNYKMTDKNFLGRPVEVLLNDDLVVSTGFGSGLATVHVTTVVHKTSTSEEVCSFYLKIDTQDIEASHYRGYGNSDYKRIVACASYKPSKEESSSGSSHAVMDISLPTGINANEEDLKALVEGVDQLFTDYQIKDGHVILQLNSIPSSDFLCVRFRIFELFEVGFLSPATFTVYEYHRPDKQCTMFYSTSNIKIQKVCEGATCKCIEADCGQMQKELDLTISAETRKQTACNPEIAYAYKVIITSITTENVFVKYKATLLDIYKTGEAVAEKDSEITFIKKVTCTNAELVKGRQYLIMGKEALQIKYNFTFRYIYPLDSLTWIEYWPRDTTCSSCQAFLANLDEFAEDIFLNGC
In words: SPR (Biacore), 37C, pH 7.4, Ab captured on ProA/G.
Protocol: To observe the cross-reactivity of anti-C5 antibodies against human C5 (hC5) and cynomolgus monkey C5 (cynoC5), BIACORE® kinetics analysis was performed.

Assay [2] addresses T2, C5 peptide 33-108 fused to GST-tag (human, UniProt P01031 33-108).
T2 construct: not shown: GST-tag (glutathione S-transferase); vector and linker not restated
In words: summary drawing of the binding reactions to C5 beta-chain fragments.

The target in assay [3] is T3, C5 peptide 45-111 fused to GST-tag (human, UniProt P01031 45-111).
T3 construct: not shown: GST-tag (glutathione S-transferase); vector and linker not restated
T3 sequence (P01031 45-111): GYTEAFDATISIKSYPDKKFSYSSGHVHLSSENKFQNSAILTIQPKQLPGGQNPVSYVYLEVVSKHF
Described as above.

Assay [4] addresses T4, C5 peptide 45-124 fused to GST-tag (human, UniProt P01031 45-124).
T4 construct: not shown: GST-tag (glutathione S-transferase); vector and linker not restated
The description is as above.

Assay [5] deals with T5, C5 peptide 52-124 fused to GST-tag (human, UniProt P01031 52-124).
T5 construct: not shown: GST-tag (glutathione S-transferase); vector and linker not restated
T5 sequence (P01031 52-124): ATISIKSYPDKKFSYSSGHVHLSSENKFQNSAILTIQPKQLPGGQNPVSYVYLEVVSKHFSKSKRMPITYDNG
The description is as above.

Assay [6] concerns the target T6, C5 peptide 33-111 fused to GST-tag (human, UniProt P01031 33-111).
T6 construct: not shown: GST-tag (glutathione S-transferase); vector and linker not restated
Described as above.

A further assay has as its target T7, 161-340.
T7 construct: Expressed in E. coli
T7 GST fusion polypeptide: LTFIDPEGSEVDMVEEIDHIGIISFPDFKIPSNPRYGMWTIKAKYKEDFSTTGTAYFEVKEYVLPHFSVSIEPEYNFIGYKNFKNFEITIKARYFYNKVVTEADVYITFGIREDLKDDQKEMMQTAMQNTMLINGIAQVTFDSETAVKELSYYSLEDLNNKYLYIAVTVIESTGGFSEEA
Nature of the assay: Western blot of E. coli lysates expressing GST-fused C5 beta-chain fragments. A general note: In western blotting, separated proteins are transferred to a membrane and probed.

The target in another assay is T8, 321-500.
T8 construct: Expressed in E. coli
T8 GST fusion polypeptide: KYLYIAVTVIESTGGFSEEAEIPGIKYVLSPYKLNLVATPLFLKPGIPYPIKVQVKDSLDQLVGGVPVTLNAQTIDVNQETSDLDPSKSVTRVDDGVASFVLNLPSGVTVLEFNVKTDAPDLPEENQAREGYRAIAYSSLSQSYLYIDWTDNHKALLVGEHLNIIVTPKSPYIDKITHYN
The description is as above.

In another assay the target is T9, 481-660.
T9 construct: Expressed in E. coli
T9 GST fusion polypeptide: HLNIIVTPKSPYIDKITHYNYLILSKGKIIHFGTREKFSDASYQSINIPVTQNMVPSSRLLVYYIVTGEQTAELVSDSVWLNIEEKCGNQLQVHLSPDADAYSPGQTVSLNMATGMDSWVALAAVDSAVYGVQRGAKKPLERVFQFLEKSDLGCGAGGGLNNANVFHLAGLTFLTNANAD
Described as above.

The target of assay [7] is T10, recombinant human C5 (human, UniProt P01031 20-1676).
T10 construct: Also used for the C5 of normal human serum in the functional rows; also called hC5; rhC5
Nature of the assay: SPR (Biacore), 37C, association at pH 7.4, dissociation at pH 5.8. (SPR reads the build-up and loss of mass on a sensor chip optically.)
Protocol: (§1) The kinetic parameters of anti-C5 antibodies against recombinant human C5 were assessed at 37° C. using BIACORE® T200 instrument (GE Healthcare) at three different conditions; (1) both association and dissociation were at pH7.4, (2) both association and dissociation were at pH5.8, and (3) association was at pH7.4 but dissociation was at pH5.8. ProA/G (Pierce) was immobilized onto a CM1 sensorchip using amine coupling kit (GE Healthcare) according to the recommended settings by GE Healthcare. Antibodies and analytes for condition (1) and (3) were diluted in ACES pH7.4 buffer (20 mM ACES, 150 mM NaCl, 1.2 mM CaCl₂, 0.05% Tween 20, 0.005% NaN₃) and for condition (2) they were diluted in ACES pH5.8 buffer (20 mM ACES, 150 mM NaCl, 1.2 mM CaCl₂, 0.05% Tween 20, 0.005% NaN₃). […] The surface was regenerated using 25 mM NaOH. Kinetic parameters at condition (1) and (2) were determined by fitting the sensorgrams with a 1:1 binding model and the dissociation rate at condition (3) was determined by fitting the sensorgrams with a 1:1 dissociation for MCK model using BIACORE® T200 Evaluation software, version 2.0 (GE Healthcare). pH dependency of all antibodies were shown as ratio of dissociation rate of condition (2) and (1).

Assay [8] addresses T10, recombinant human C5. In words: SPR (Biacore), ratio of dissociation rates of conditions (2) and (1).
Protocol: as §1
Assay [9] deals with T10, recombinant human C5. In words: SPR (Biacore), 37C, association and dissociation at pH 5.8, Ab on ProA/G.
Protocol: as §1
Assay [10] addresses T10, recombinant human C5. Nature of the assay: SPR (Biacore), 37C, association and dissociation at pH 7.4, Ab on ProA/G.
Protocol: as §1

T6 sequence (P01031 33-111): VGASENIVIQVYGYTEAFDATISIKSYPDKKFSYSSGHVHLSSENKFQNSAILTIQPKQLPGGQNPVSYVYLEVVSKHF
T4 sequence (P01031 45-124): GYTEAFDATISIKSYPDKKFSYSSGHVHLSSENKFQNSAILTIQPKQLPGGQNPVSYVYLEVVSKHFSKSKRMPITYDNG
T2 sequence (P01031 33-108): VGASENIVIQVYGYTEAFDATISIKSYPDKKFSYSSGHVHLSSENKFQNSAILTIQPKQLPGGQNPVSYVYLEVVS
Protocol for 161-340: (§2) Anti-C5 monoclonal antibodies (MAbs) were tested for binding to C5 β-chain-derived peptides in Western blot analysis. […] The E. coli samples were harvested after incubation with 1 mM Isopropyl β-D-1-thiogalactopyranoside (IPTG) for 5 hours at 37° C., and centrifuged at 20000×g for 1 min to obtain pellets.
Protocol for 321-500: as §2
Protocol for 481-660: as §2

B1: CFA0599 (antibody, V domains shown)
VH: QSVEESGGRLVTPGTPLTLTCTVSGLSLSDNTMTWVRQAPGKGLEWIGIISFGGDAYYASWAKGRFPISKTSTTVDLRITSPTTEDTATYFCARVGAGNIFWYFDLWGPGTLVTVSS
VL: AYDMTQTPASVEVSVGGTVTIKCQASESIYSALAWYQQKPGQPPKLLIYSASTLASGVPSRFKGSGSGTEYTLTISDLECADAATYYCQQYYSSTNVHNSFGGGTTVVVE
notes: Chimeric, rabbit V regions; also called CFA0599-F760G4
By Kd is commonly meant the constant that tells how readily two partners part at equilibrium. For the molecule B1, the Kd in [1] was determined as 4.33 nM. The binding result (in assay [2]; in [3]; in assay [4]; in assay [5]; in [6]; in the assay with 161-340) was “no binding” each time. In addition, the binding result in the assay with 321-500 and with 481-660 was “no binding” throughout.

B2: CFA0666 (antibody, V domains shown)
VH: QSVEESGGRLVTPGTPLTLTCTVSGFSLSTYAMGWVRQAPGKGLEWIGTIDTGDNSFYANWAKGRFTISKTSTTVDLKITSPTAEDTATYFCARNDGSVYNLFNLWGPGTLVTVSS
VL: DVVMTQTPASVSAAVGGTVTIKCQASENIYSALSWYQQKPGLRPRLLIYYASTLASGVPSRFKGSRSGTEFTLTISDLECADAATYYCQQYYDINSVDNTFGGGTKVVVE
notes: Chimeric, rabbit V regions; also called CFA0666-F760G4
Consider B2, for which the Kd in [1] was 1.57 nM. Further, the binding result (in assay [2]; in assay [3]; in assay [4]; in assay [5]; in [6]; in the assay with 161-340) was “no binding” each time. For the same molecule, the binding result in the assay with 321-500 and with 481-660 was “no binding” each time.

B3: CFA0501 (antibody, V domains shown)
VH: QSVEESGGRLVTPGTPLTLTCTASGFSLSSYYMNWVRQAPGKGLEWIGMIYGSGATYYASWAKGRFTISKTSSTTVDLKMTSLTTEDTATYFCARQIYSGDNNDNFWGPGTLVTVSS
VL: AYDMTQTPASVEVAVGGTVTINCQASESISNWLAWYQQKPGQRPKLLIYRASTLASGVSSRFKGSGSGTQFTLTISGVECDDAATYYCQQDYSSSNVDNTFGGGTKVVVE
notes: Chimeric, rabbit V regions; also called CFA0501-F760G4
On to B3, for which the equilibrium dissociation constant (Kd) in assay [1] was 5.88 nM. Further, the binding result (in assay [2]; in assay [3]; in assay [4]; in assay [5]; in assay [6]; with 161-340) was “no binding” in each case. Besides, the binding result in the assay with 321-500 and in the assay with 481-660 was “no binding” in each case.

B4: CFA0538 (antibody, V domains shown)
VH: QSVEESGGRLVTPGTPLTLTCTASGFSLSSYYMNWVRQAPGKGLEWIGMIYGSGATYYASWAKGRFTISKTSSTTVDLKMTSLTTEDTATYFCARQIYSGDNNDNFWGPGTLVTVSS
VL: AYDMTQTPASVEVAVGGTVTINCQASESISNWLAWYQQKPGQRPKLLIYRASTLASGVSSRFKGSGSGTQFTLTISGVECDDAATYYCQQDYSSSNVDNTFGGGTTVVVE
notes: Chimeric, rabbit V regions; also called CFA0538-F760G4
With B4, the Kd in assay [1] was 5.44 nM. Further, the binding result (in assay [2]; in [3]; in [4]; in [5]; in assay [6]; in the assay with 161-340) was “no binding” in each case. The binding result with 321-500 and in the assay with 481-660 was “no binding” throughout.

B5: 305LO16-SG422 (antibody, human IgG4, V domains shown)
VH: QVQLVESGGGLVQPGRSLRLSCAASGFTVHSSYYMAWVRQAPGKGLEWVGAIFTGSGAEYKAEWVKGRFTISRDNSKNTLYLQMNSLRAEDTAVYYCASDAGYDYPTHAMHYWGRGTLVTVSS
VL: DIQMTQSPSSLSASVGDRVTITCRASQGISSSLAWYQQKPGKAPKLLIYGASETESGVPSRFSGSGSGTDFTLTISSLQPEDFATYYCQNTKVGSSYGNTFGGGTKVEIKR
notes: Modified human IgG4 CH SG422, human CL SK1
By koff is commonly meant the first-order rate constant of dissociation. By kon is commonly meant a measure of how fast the partners come together. Consider B5, for which the koff in the assay with recombinant human C5 [7] worked out at 0.0161 s⁻¹; with recombinant human C5 [9], 0.00869 s⁻¹; with recombinant human C5 [10], 0.000412 s⁻¹. Also, the “pH dependency (kd pH 5.8 / kd pH 7.4)” value with recombinant human C5 [8] came to 21.1 fold. In addition, the kon is 109000 M⁻¹ s⁻¹ in the assay with recombinant human C5 [9] and 1.28e+06 M⁻¹ s⁻¹ with recombinant human C5 [10].
